According to patent publication US10227388B2, “Peptides and combination of peptides for use in immunotherapy against non-small cell lung cancer and other cancers” (immatics biotechnologies GmbH, priority 2015, dated 2019):

Target: HLA-A*02:01 (Homo sapiens, UniProt P04439, D140Y/D185E/D98H/E176V/E277Q/G131W/G231S/I119V/I121R/I166T/I218V/L300P/L318F/N151K/N90K/P208A/P217A/Q86G/Q94H/R138H/R169H/T345S)
Assay: MHC binding assay (UV-ligand exchange, ELISA, peptide exchange yield)
Conditions: binding of HLA-class I restricted peptides to HLA-A*02:01
From the text: Candidate peptides for T cell based therapies according to the present invention were further tested for their MHC binding capacity (affinity). The individual peptide-MHC complexes were produced by UV-ligand exchange, where a UV-sensitive peptide is cleaved upon UV-irradiation, and exchanged with the peptide of interest as analyzed. Only peptide candidates that can effectively bind and stabilize the peptide-receptive MHC molecules prevent dissociation of the MHC complexes. To determine the yield of the exchange reaction, an ELISA was performed based on the detection of the light chain ([…]) of stabilized MHC complexes. The assay was performed as generally described in Rodenko et al. (Rodenko et al., 2006).
96 well MAXISorp plates (NUNC) were coated over night with 2-ug/ml streptavidin in PBS at room temperature, washed 4× and blocked for 1 h at 37° C. in 2% BSA containing blocking buffer. […] Peptide-MHC monomers of the UV-exchange reaction were diluted 100 fold in blocking buffer. Samples were incubated for 1 h at 37° C., washed four times, incubated with 2-ug/ml HRP conjugated anti-β2m for 1 h at 37° C., washed again and detected with TMB solution that is stopped with […]. Absorption was measured at 450 nm. Candidate peptides that show a high exchange yield (preferably higher than 50%, most preferred higher than 75%) are generally preferred for a generation and production of antibodies or fragments thereof, and/or T cell receptors or fragments thereof, as they show sufficient avidity to the MHC molecules and prevent dissociation of the MHC complexes.

Substance | Peptide exchange (MHC class I binding score, peptide exchange yield)
1 (SLMEPPAVLLL; listed as Homo sapiens) [compound 1] | ″+++″ (≥50% = +++)
4 (GIMEHITKI; listed as Homo sapiens) [compound 4] | ″++++″ (≥75% = ++++)
5 (HLTEVYPEL; listed as Homo sapiens) [compound 5] | ″+++″ (≥50% = +++)
6 (VLVSDGVHSV; listed as Homo sapiens) [compound 6] | ″+++″ (≥50% = +++)
7 (SLVGLLLYL; listed as Homo sapiens) [compound 7] | ″++++″ (≥75% = ++++)
9 (GAAKDLPGV; listed as Homo sapiens) [compound 9] | ″++″ (≥20% = ++)
10 (FLATFPLAAV; listed as Homo sapiens) [compound 10] | ″++++″ (≥75% = ++++)
12 (SLWPDPMEV; listed as Homo sapiens) [compound 12] | ″+++″ (≥50% = +++)
13 (YLMDESLNL; listed as Homo sapiens) [compound 13] | ″+++″ (≥50% = +++)
14 (AAYGGLNEKSFV; listed as Homo sapiens) [compound 14] | ″+++″ (≥50% = +++)
15 (VLLTFKIFL; listed as Homo sapiens) [compound 15] | ″++″ (≥20% = ++)
16 (VLFQGQASL; listed as Homo sapiens) [compound 16] | ″+++″ (≥50% = +++)
17 (GLLPGDRLVSV; listed as Homo sapiens) [compound 17] | ″+++″ (≥50% = +++)
18 (YLVAKLVEV; listed as Homo sapiens) [compound 18] | ″++″ (≥20% = ++)
19 (FMVDNEAIYDI; listed as Homo sapiens) [compound 19] | ″++++″ (≥75% = ++++)
20 (RMIEYFIDV; listed as Homo sapiens) [compound 20] | ″+++″ (≥50% = +++)
21 (VLDELDMEL; listed as Homo sapiens) [compound 21] | ″++″ (≥20% = ++)
22 (IMEENPGIFAV; listed as Homo sapiens) [compound 22] | ″+++″ (≥50% = +++)
23 (VLLDDIFAQL; listed as Homo sapiens) [compound 23] | ″+++″ (≥50% = +++)

Substance | Peptide exchange (MHC class I binding score, peptide exchange yield)
24 (SLSDGLEEV; listed as Homo sapiens) [compound 24] | ″++″ (≥20% = ++)
25 (FLPDEPYIKV; listed as Homo sapiens) [compound 25] | ″+++″ (≥50% = +++)
26 (ALLELAEEL; listed as Homo sapiens) [compound 26] | ″+++″ (≥50% = +++)
27 (ILADIVISA; listed as Homo sapiens) [compound 27] | ″+++″ (≥50% = +++)
28 (QLLDETSAITL; listed as Homo sapiens) [compound 28] | ″+++″ (≥50% = +++)
29 (KMLGIPISNILMV; listed as Homo sapiens) [compound 29] | ″+++″ (≥50% = +++)
30 (LILDWVPYI; listed as Homo sapiens) [compound 30] | ″+++″ (≥50% = +++)
31 (YLAPELFVNV; listed as Homo sapiens) [compound 31] | ″++″ (≥20% = ++)
32 (KLDDLTQDLTV; listed as Homo sapiens) [compound 32] | ″++″ (≥20% = ++)
33 (VLLSLLEKV; listed as Homo sapiens) [compound 33] | ″++″ (≥20% = ++)
34 (ILVEADSLWVV; listed as Homo sapiens) [compound 34] | ″+++″ (≥50% = +++)
35 (KINDTIYEV; listed as Homo sapiens) [compound 35] | ″+++″ (≥50% = +++)
39 (SVAPNLPAV; listed as Homo sapiens) [compound 39] | ″+++″ (≥50% = +++)
40 (TLLVKVFSV; listed as Homo sapiens) [compound 40] | ″+++″ (≥50% = +++)
41 (SLMPHIPGL; listed as Homo sapiens) [compound 41] | ″+++″ (≥50% = +++)
42 (VLLQKIVSA; listed as Homo sapiens) [compound 42] | ″+++″ (≥50% = +++)
43 (VLSSLEINI; listed as Homo sapiens) [compound 43] | ″++″ (≥20% = ++)
44 (ILDPISSGFLL; listed as Homo sapiens) [compound 44] | ″++″ (≥20% = ++)
45 (SLWQDIPDV; listed as Homo sapiens) [compound 45] | ″+++″ (≥50% = +++)

Substance | Peptide exchange (MHC class I binding score, peptide exchange yield)
46 (ILTEENIHL; listed as Homo sapiens) [compound 46] | ″+++″ (≥50% = +++)
47 (ILLSVPLLVV; listed as Homo sapiens) [compound 47] | ″++″ (≥20% = ++)
49 (YLPAVFEEV; listed as Homo sapiens) [compound 49] | ″+++″ (≥50% = +++)
50 (SLSELEALM; listed as Homo sapiens) [compound 50] | ″+++″ (≥50% = +++)
51 (LLPDLEFYV; listed as Homo sapiens) [compound 51] | ″++++″ (≥75% = ++++)
52 (FLLAHGLGFLL; listed as Homo sapiens) [compound 52] | ″++++″ (≥75% = ++++)
53 (KMIETDILQKV; listed as Homo sapiens) [compound 53] | ″++++″ (≥75% = ++++)
54 (SLLEQGKEPWMV; listed as Homo sapiens) [compound 54] | ″+++″ (≥50% = +++)
55 (SLLDLETLSL; listed as Homo sapiens) [compound 55] | ″++++″ (≥75% = ++++)
57 (TLAELQPPVQL; listed as Homo sapiens) [compound 57] | ″+++″ (≥50% = +++)
59 (IMEDIILTL; listed as Homo sapiens) [compound 59] | ″+++″ (≥50% = +++)
60 (SLTIDGIYYV; listed as Homo sapiens) [compound 60] | ″++++″ (≥75% = ++++)
61 (FLQGYQLHL; listed as Homo sapiens) [compound 61] | ″++++″ (≥75% = ++++)
62 (VLLDVSAGQLLM; listed as Homo sapiens) [compound 62] | ″++++″ (≥75% = ++++)
63 (YLLPSGGSVTL; listed as Homo sapiens) [compound 63] | ″++″ (≥20% = ++)
64 (YAAPGGLIGV; listed as Homo sapiens) [compound 64] | ″++″ (≥20% = ++)
66 (FLDENIGGVAV; listed as Homo sapiens) [compound 66] | ″+++″ (≥50% = +++)
67 (TLLAEALVTV; listed as Homo sapiens) [compound 67] | ″+++″ (≥50% = +++)
68 (SLMELPRGLFL; listed as Homo sapiens) [compound 68] | ″++++″ (≥75% = ++++)
